Results as given in patent US20250011391A1, “ULTRA LIGHT-SENSITIVE NEUROPSIN-BASED OPTOGENETIC TOOL FOR ACTIVATING G q-COUPLED SIGNALING AND/OR ACTIVATING CELLS” (GENANS BIOTECHNOLOGY CO., LTD, priority 2021, published 2025).
“Also recorded” adds a separate entry of the source. Numbered stars: 1 amine (or outer) side, 2 acyl side, 3 side chain; on linkers, the order of the positions; unused ones are H or OH. Bridge positions count the residues as written; N and C are the ends. Square brackets hold non-standard residues; d marks the D form. Peptide text beside a SMILES is read from it. X1 = CC(=O)NC(C(=O)OC(C(C)C)C(N[*:1])C(=O)[*:2])C(O)C(C)C; PhLac = O=C(O)[CH](O)Cc1ccccc1; NMeT = CN[CH](C(=O)O)[CH](C)O; NMeA = CN[CH](C)C(=O)O; NMeDha = C=C(NC)C(=O)O

Assays:
Gq proteins [1] = molecular target: Gq proteins
Gq proteins [2] = molecular target: Gq proteins; remark: listed apart in the source
[3] = tested on: astrocytes within the mouse S1 cortex; assay: In vivo two-photon imaging (920 nm) of ATP release (GRABATP sensor) following astrocyte activation; conditions: eight hours after intraperitoneal LPS
Gi signaling = assay: cAMP levels in Opn5-expressing HEK 293T cells after photostimulation; type: cell-based; conditions: with retinal (10 μM retinal preincubation)
Description: (§1) Whether heterologous expression of the Opn5 orthologs from chicken, turtles, humans and mice (which share 80-90% protein sequence identity) have the capacity to mediate blue light-induced Gq signaling activation within HEK 293T cells is tested (FIG. 1a and table 7). Blue light for stimulation and the red intracellular calcium indicator Calbryte™ 630 AM dye are used to monitor the relative Ca^2+ response (FIG. 1b).
f, Light has no effect on cAMP levels (10 μM forskolin preincubation) in cOpn5-expressing HEK 293T cells without additional retinal in the medium (left panel).

[4] = tested on: Gq signaling in HEK 293T cells; assay: Light-induced Ca2+ signal (Calbryte 630 AM dye) in opsin-expressing HEK 293T cells; type: cell-based; conditions: for light-induced increase in Ca2+ signal: blue light 10 s, 100 μW/mm2, 488 nm, no exogenous retinal
Description: as §1
b, Pseudocolor images of the Ca2+ signal before and after blue light stimulation (10 s; 100 μW/mm^2; 488 nm) in HEK 293T cells expressing Opn5 from three species (Gallus gallus, Homo sapiens, and Mus musculus). Scale bar, 10 μm.
Characterizing the light-activating properties of cOpn5 heterologously expressed in HEK 293T cells is performed. […] The effects of different light durations on cOpn5-expressing HEK 293T cells are tested. […] Therefore, the light sensitivity of cOpn5 is 3-4 orders of magnitude higher than the reported values of the light-sensitive Gq-coupled GPCRs and even 2-3 orders higher than those of the commonly used optogenetic tool Channelrhodopsin-2 (ChR2)(Lin, 2011; Zhang et al., 2006) (table 8).
The performance of cOpn5 to that of opto-a1AR, a chimera GPCR engineered by mixing rhodopsin with Gq-coupled adrenergic receptor is compared. […] The performance of cOpn5 to that of opn4, a natural opsin which was reported as a tool for Gq signaling activating is also compared. […] Therefore, compared with existing opsin-based tools (opto-a1AR and opn4), cOpn5 is much more light-sensitive (˜3 orders more sensitive), requires much shorter time exposure (10 ms vs. 60 s), and produces stronger responses. […]
Experiments description: the following table 9 is a partial list of cOpn5 orthologs from vertebrata tested in the present invention. Whole genes of all reported opsin5 orthologs from vertebrata (the vertebrates subphylum, including rotundia, cartilaginous fishes, bony fishes, Amphibia, reptila, ornitha and mammals) are synthetized, and expressed in HEK 293T cells. Calcium imaging with or without 470 nm blue light stimulation is performed to test the sensitivity of the opsin 5 orthologs in response to light. The time course of light-induced calcium signal reveal the activated degree of Gq signaling pathway and the sensitivity of these orthologs.

[5] = tested on: Gq signaling in HEK 293T cells; assay: IP1 accumulation in Opn5-expressing HEK 293T cells; type: cell-based; conditions: 100 μW/mm2, 470 nm; for light-induced increase in the level of inositol phosphate (IP1): continuous light 3 min; for effect on light-evoked IP1 accumulation in cOpn5-expressing cells: YM-254890 treatment, 3 min
Description: as §1
f, YM suppressed the IP1 accumulation evoked by continuous light stimulation (3 min; 100 μW/mm^2; 470 nm) in cOpn5-expressing HEK 293T cells (Left). ***P<0.0001, *P=0.0128; Tukey's multiple comparisons test.

in vivo astrocytes = conditions: cited from earlier work
HEK293-TRPC3 cells = conditions: cited from earlier work

Q: With opto-a1AR (receptor) as the molecule, how does the light-induced Ca^2+ signal in HEK 293T cells (Gq proteins [1]) read?
A: 0.5 ΔF/F

Q: With Turtle Opn5 (opsin 5) (receptor) as the molecule, how does the light-induced Ca^2+ signal (Calbryte 630 AM) in HEK 293T cells (Gq proteins [2]) read?
A: 3 ΔF/F

Q: For lipopolysaccharide [LPS], which “increase of ATP flash events over basal condition” value [3] is on record?
A: ~6 fold

Q: What about the ATP flash frequency ([3]; mice expressing GRABATP alone) of the same molecule?
A: ~2 flashes per min

Q: What does the source list for “hOPN5: Human (Homo sapiens) Opn5 ortholog, GenBank AY377391.1 [reference compound]”?
A: effect of blue light illumination on cAMP levels (Gi signaling): effectively reduces cAMP levels; light-induced increase in Ca2+ signal [4]: no light effect; light-induced increase in the level of inositol phosphate (IP1) ([5]; listed as human OPN5): not; light-induced increase in the level of inositol phosphate (IP1) ([5]; listed as human Opn5): no significant difference

Q: For “human OPN4 (melanopsin) (from UniProt Q9UHM6) (receptor)”, which light-induced Ca^2+ signal in HEK 293T cells (Gq proteins [1]) is on record?
A: 1 ΔF/F

Q: Which light-induced Ca^2+ signal (Calbryte 630 AM) in HEK 293T cells (Gq proteins [2]) does the source give for “Chicken Opn5 (opsin 5, neuropsin) (receptor)” here?
A: 3 ΔF/F

Q: What does the source list for `C=C1C(=O)NC(C)C(=O)N(C)C(C)C(=O)NC(C(OC(=O)C(NC(C)=O)C(O)C(C)C)C(C)C)C(=O)N(C)C(C(C)OC)C(=O)OC(C)C(NC(C)=O)C(=O)OC(Cc2ccccc2)C(=O)N1C` (centres unmarked) [YM-254890, reference compound] (Ac-T[PhLac][NMeDha]A[NMeA][X1][NMeT](Me); ester 1-C; configuration not given here)?
A: effect on cOpn5-mediated, light-induced Ca2+ signals ([4]; YM-254890 10 nM preincubation, cOpn5-expressing HEK 293T cells): reversibly abolishes; also recorded: reversibly blocked; effect on turtle Opn5-mediated, light-induced Ca2+ signals ([4]; YM-254890 10 nM, turtle Opn5-expressing HEK 293T cells): reversibly blocked; effect on light-evoked IP1 accumulation in cOpn5-expressing cells [5]: reduced; effect on light-evoked IP1 accumulation in cOpn5-expressing cells ([5]; listed as YM): suppressed

B1: tOpn5: Turtle (Chelonia mydas) Opn5 ortholog, SEQ ID NO:2, GenBank XM_007068312.4 (protein)
chain: MASNHSTSPQDDHLPHYLQDEDPFASKLSREADIVAGFYLTIIGVLSTFGNGYVLFMSLKRKKKLKPAEIMTVNLAMCDLGISVVGKPFSIISFFSHRWVFGWLGCRWYGWAGFFFGCGSLITLTAVSLDRYLKICHLTYGTWLKRHHAFICLAIIWAYATFWATVPFAGLGNYAPEPFGTSCTLDWWLAQGSVAGQAFILNILFFCLLLPTAVIVFSYVKIIAKVKSSAKEVAHYDTRIQNSHVLEIKLTKVAMLICAGFLIAWIPYAVVSVWSAFGQPDSVPIQVSVIPTLLAKSAAMYNPIIYQVIDCKFSCCRSLQKKSSLKKSRLYTISGNREPTEMNETHLEL
modifications: Chelonia mydas
Q: With B1 as the molecule, how does the “light-induced increase in Ca2+ signal” value [4] read?
A: ~3 ΔF/F

B2: mOpn5: Mouse (Mus musculus) Opn5 ortholog, GenBank NM_181753.4 (protein)
chain: MALNHTALPQDERLPHYLRDEDPFASKLSWEADLVAGFYLTIIGILSTFGNGYVLYMSSRRKKKLRPAEIMTINLAVCDLGISVVGKPFTIISCFCHRWVFGWFGCRWYGWAGFFFGCGSLITMTAVSLDRYLKICYLSYGVWLKRKHAYICLAVIWAYASFWTTMPLVGLGDYAPEPFGTSCTLDWWLAQASGGGQVFILSILFFCLLLPTAVIVFSYAKIIAKVKSSSKEVAHFDSRIHSSHVLEVKLTKVAMLICAGFLIAWIPYAVVSVWSAFGRPDSIPIQLSVVPTLLAKSAAMYNPIIYQVIDYRFACCQAGGLRGTKKKSLEDFRLHTVTAVRKSSAVLEIHPESSSRFTSAHVMDGESHSNDGDCGKK
Q: With B2 as the molecule, how does the “effect of blue light illumination on cAMP levels” value (Gi signaling) read?
A: effectively reduces cAMP levels

Q: What about the “light-induced increase in Ca2+ signal” value [4] of the same molecule?
A: no light effect

B3: human melanopsin: a natural opsin (melanopsin, Opn4) reported as a tool for Gq signaling activating (protein)
chain: MNPPSGPRVPPSPTQEPSCMATPAPPSWWDSSQSSISSLGRLPSISPTAPGTWAAAWVPLPTVDVPDHAHYTLGTVILLVGLTGMLGNLTVIYTFCRSRSLRTPANMFIINLAVSDFLMSFTQAPVFFTSSLYKQWLFGETGCEFYAFCGALFGISSMITLTAIALDRYLVITRPLATFGVASKRRAAFVLLGVWLYALAWSLPPFFGWSAYVPEGLLTSCSWDYMSFTPAVRAYTMLLCCFVFFLPLLIIIYCYIFIFRAIRETGRALQTFGACKGNGESLWQRQRLQSECKMAKIMLLVILLFVLSWAPYSAVALVAFAGYAHVLTPYMSSVPAVIAKASAIHNPIIYAITHPKYRVAIAQHLPCLGVLLGVSRRHSRPYPSYRSTHRSTLTSHTSNLSWISIRRRQESLGSESEVGWTHMEAAAVWGAAQQANGRSLYGQGLEDLEAKAPPRPQGHEAETPGKTKGLIPSQDPRM
Q: With B3 as the molecule, how does the “Light Sensitivity” value (in vivo astrocytes) read?
A: 7 mW/mm^2

Q: And the “Response amplitude: Ca2+ event frequence” value (in vivo astrocytes)?
A: ~2 (ΔF/F)

Q: And the “change in Ca2+ amplitude” value (in vivo astrocytes)?
A: no significant

Q: And the “effect of light on Ca2+ signals without ATR” value ([4]; OPN4-expressing cells, 25 s light, without ATR)?
A: lack of effect

Q: What about the “Light Sensitivity” value ([4]; Table 8, HEK 293T) of the same molecule?
A: 40 mW/mm^2

Q: And the “Response amplitude: Ca2+ response amplitude” value ([4]; Table 8, HEK 293T, light as in the row's sensitivity and duration columns)?
A: ~0.646 (ΔF/F)

Q: What about the “Ca2+ signal increase” value ([4]; opn4-expressing cells, 25 s, 40 mW/mm2, additional retinal) of the same molecule?
A: ~1 ΔF/F

B4: mouse melanopsin (Opn4): mouse melanopsin, literature optogenetic tool in Table 8 (protein, UniProt Q9QXZ9 1-521, looked up)
Melanopsin: MDSPSGPRVLSSLTQDPSFTTSPALQGIWNGTQNVSVRAQLLSVSPTTSAHQAAAWVPFPTVDVPDHAHYTLGTVILLVGLTGMLGNLTVIYTFCRNRGLRTPANMFIINLAVSDFLMSVTQAPVFFASSLYKKWLFGETGCEFYAFCGAVFGITSMITLTAIAMDRYLVITRPLATIGRGSKRRTALVLLGVWLYALAWSLPPFFGWSAYVPEGLLTSCSWDYMTFTPQVRAYTMLLFCFVFFLPLLIIIFCYIFIFRAIRETGRACEGCGESPLRQRRQWQRLQSEWKMAKVALIVILLFVLSWAPYSTVALVAFAGYSHILTPYMSSVPAVIAKASAIHNPIIYAITHPKYRVAIAQHLPCLGVLLGVSGQRSHPSLSYRSTHRSTLSSQSSDLSWISGRKRQESLGSESEVGWTDTETTAAWGAAQQASGQSFCSQNLEDGELKASSSPQVQRSKTPKVPGPSTCRPMKGQGARPSSLRGDQKGRLAVCTGLSECPHPHTSQFPLAFLEDDVTLRHL
Q: With B4 as the molecule, how does the Light Sensitivity (HEK293-TRPC3 cells; (500 nm)) read?
A: 1e+15 photons s^−1 cm^−2

Q: And the “Response amplitude: Ca2+ response ampitude” value (HEK293-TRPC3 cells)?
A: ~0.1 (ΔF/F)
